Tests used:
[1] = Incubation with rat TG macrophage cell lysates; assay type: in vitro ADME; details: rat TG macrophage lysate, pH 4.5, 37° C., 1 hour
Procedure: Female Lewis rats approximately 200 grams in size (Harlan Laboratories, Indianapolis, Ind.) were injected intraperitoneally at 20 mL/kg of body weight with sterile 7.5% thioglycollate solution (BD Biosciences) supplemented with 12.5% BSA aged for more than 6 months in the presence of 0.5 M D-glucose at 37° C. in the dark according to the procedure of Li et al. (Journal of Immunological Methods (1997) 201:183-188). Three days later these rats were humanely euthanized with CO2 asphyxiation and total peritoneal cells isolated by intraperitoneal lavage with 50 mL of sterile phosphate buffered saline (PBS) containing 0.5 mM EDTA. Red blood cells were lysed with a 5 minute incubation with 1×RBC lysis buffer (BioLegend, San Diego, Calif.). […] Cells were incubated for 2 hrs in 5% CO2. After two hours, floating cells/debris was removed and the adherent cells were washed once with drug free media. Normal growth media (10% FCS RPMI1640) was added to each plate of cells and then incubated for 1, 2 and 3 days in the tissue culture incubator. The adherent cells were harvested using an 8 minute trypsin digest to loosen the cells and then gently scraped off the plate. […] Live cells were counted and then washed once with cold PBS. […]

Pharmacokinetics in rats = details: female, Lewis, rat, in vivo, sc, 500 nmol/kg; for AUC(0-inf): AUCinf
Procedure: Each rat was used for collection of blood samples for a maximum of 4 time points. […] The samples were centrifuged for 3 minutes at 2000×g (Eppendorf 5417R centrifuge) to obtain plasma. The plasma samples were stored at −80° C. until LC-MS/MS analysis.
LC-MS/MS analysis utilized a Waters Acquity UPLC system paired with a Waters Quattro Premier XE tandem quadrupole mass spectrometer operating in ESI positive mode. Prior to injection, K3EDTA plasma samples were processed using a Phenomenex Strata X-A solid phase extraction (SPE) plate. All plasma samples were fortified with N-Maleoyl-β-alanine, mannitol, and acetic acid. Briefly, 50 μL of plasma diluted with 50 μL of internal standard solution and 500 μL 1000:4:1.5 water:ammonium hydroxide:formic acid was mixed and loaded onto a preconditioned Strata X-A SPE plate. Aqueous and organic washes were then applied followed by elution of all analytes with 300:200:7.5 methanol:water:formic acid. The samples were evaporated until approximately 30 μL remained in all wells and 30 μL of 9:1 water:ammonium hydroxide was then added. Finally, the plate was sealed, mixed, and centrifuged prior to transfer to the 2-8° C. Acquity autosampler. Note: During EC1669 analysis, EC0470 was converted to a hydrazone product for bioanalysis. Acetone (500 μL) was added to all samples after the first evaporation step followed by sealing all wells and heating at 50° C. for one hour. After this step, the acetone was evaporated and the extraction completed as described above.
A 10 μL sample volume was applied to the Waters BEH Shield RP18 100×2.1 mm, […] UPLC column operating at a flow rate of 0.4 mL/min while being maintained at 45° C. A gradient between mobile phase A (1000:4:1.5 water:ammonium hydroxide:formic acid) and mobile phase B (acetonitrile) was used to separate the analytes. The gradient was held at 2% B for the first 30 seconds of the chromatographic run followed by increasing to 20% B by 2.5 minutes. A rapid gradient from 60-90% B is then used to clean the column prior to equilibration at 2% B to complete the 4 minute run cycle.
For EC1669 MS/MS analysis, EC1669 and its known major metabolites, EC1886 and […], were optimized and monitored. […] In all cases, internal standard response was used to generate response ratios for each analyte. When calibrated, data was regressed using MassLynx 4.1 software. The table below lists transitions for analytes and internal standards monitored for LC-MS/MS bioanalysis.

[2] = Incubation with THP-1 FRβ cell lysates; assay type: in vitro ADME, human; details: THP-1 FRβ lysate, pH 4.5, 37° C., 2 hours
Procedure: To 100 μL AIA rat macrophage, RAW264.7 or THP-1 FRβ cell lysates (each containing 10 million cells/mL 0.1 M sodium acetate, Ph 4.5) was added 2 μL of a 50 μM solution of EC2319 or EC1669 (Endocyte, Inc.). The solutions were incubated at 37° C. in a heat block (VWR International, Radnor, Pa.) for 2 hours. The reaction was terminated by the addition of 5 µL of stabilizer solution and 100 μL of acetonitrile containing d5-aminopterin (Endocyte, Inc.). The rest of the workup is as described above.

[3] = Release of aminopterin in dog hepatic cytosol; assay type: in vitro ADME; details: 5% dog liver cytosol, 1 hour; for pH dependence of aminopterin release from the conjugate: pH 4.5, 6.0, 7.4, 37° C.
Procedure: EC2319 and EC1669 were incubated in 5% rat, dog, and human hepatic cytosol at different pH's to look at release of aminopterin from these conjugates. Liver cytosols from male Sprague-Dawley rats (Lot No. 1110428), male beagle dogs (Lot no. 1310024), and male humans (Lot No. 0710493), all containing 10 mg/mL protein, were obtained from Xenotech LLC (Lenexa, Kans.). These were diluted 20× in either 0.5 M sodium acetate buffer, pH 4.5, 0.5 M sodium acetate buffer, 6.0, or 0.5 M potassium phosphate buffer, pH 7.4 in a final volume of 500 μL. Reactions were initiated by the addition of 1 μL of either EC2319 or EC1669 and the reaction mixtures incubated at 37° C. for 1 hour. At the end of the incubation, a 100 μL aliquot was withdrawn into a cluster tube and the reaction was terminated by the addition of 5 μL of stabilizer solution (containing 8.5 mg/ml N-Maleoyl-β-alanine, 20 mg/mL mannitol and 0.075% acetic acid) and 100 μL of acetonitrile containing d5-aminopterin. The tubes were vortexed and then centrifuged at 4000 rpm for 10 minutes (Eppendorf centrifuge 5810R). 150 μL of the supernatant was transferred to 96-well plates and the acetonitrile evaporated off under nitrogen at 35° C. for 5 minutes. The extract was diluted with 50 μL of mobile phase A. The plate was vortexed on a VX-2500 multi-tube vortexer (VWR International, Radnor, Pa.) and the extract analyzed by LC-MS/MS.

SMILES	aminopterin release [1]	Cmax (Pharmacokinetics in rats) [nM]	Tmax (Pharmacokinetics in rats) [min]	half-life (Pharmacokinetics in rats) [min]	AUC(0-inf) (Pharmacokinetics in rats; rat plasma, EC1669 dosed SC 500 nmol/kg) [µM·h]	AUC(0-t) (Pharmacokinetics in rats; AUClast, rat plasma, EC1669 dosed SC 500 nmol/kg) [µM·h]	aminopterin release [2]	pH dependence of aminopterin release from the conjugate [3]	AUC(0-inf) (Pharmacokinetics in rats; rat plasma, EC2319 dosed SC 500 nmol/kg) [µM·h]	magnitude of aminopterin release ([3]; 37° C.)
N=c1[nH]c(N)nc2ncc(CNc3ccc(C(=O)N[C@@H](CCC(=O)NNC(=O)OCCSSC[C@@H](NC(=O)[C@H](CCC(=O)NC[C@H](O)[C@@H](O)[C@H](O)[C@H](O)CO)NC(=O)[C@@H](CCC(=O)O)NC(=O)[C@H](CCC(=O)NC[C@H](O)[C@@H](O)[C@H](O)[C@H](O)CO)NC(=O)[C@@H](CCC(=O)O)NC(=O)[C@H](CCC(=O)NC[C@H](O)[C@@H](O)[C@H](O)[C@H](O)CO)NC(=O)CC[C@H](NC(=O)c4ccc(NCc5cnc6nc(N)[nH]c(=O)c6n5)cc4)C(=O)O)C(=O)O)C(=O)O)cc3)nc12 [EC1669, reference compound]	greater from EC1669 than from EC2319	472	30	27.8	0.86	0.857	greater from EC1669 than from EC2319	highest at pH 4.5	–	–
COC(=O)[C@H](CSSC(C)(C)[C@H](NC(=O)[C@H](CCC(=O)NC[C@H](O)[C@@H](O)[C@H](O)[C@H](O)CO)NC(=O)[C@H](CCC(=O)O)NC(=O)[C@H](CCC(=O)NC[C@H](O)[C@@H](O)[C@H](O)[C@H](O)CO)NC(=O)[C@H](CCC(=O)O)NC(=O)[C@H](CCC(=O)NC[C@H](O)[C@@H](O)[C@H](O)[C@H](O)CO)NC(=O)CC[C@H](NC(=O)c1ccc(NCc2cnc3nc(N)[nH]c(=O)c3n2)cc1)C(=O)O)C(=O)O)NC(=O)CC[C@H](NC(=O)c1ccc(NCc2cnc3nc(N)nc(N)c3n2)cc1)C(=O)O [EC2319]	aminopterin release was observed	–	–	–	–	–	aminopterin release was observed	highest at pH 4.5	1.02	lower than that from EC1669

From patent US20180280528A1, “ANTIFOLATE CONJUGATES FOR TREATING INFLAMMATION” (ENDOCYTE, INC., priority 2015, published 2018)
